Experiments:
[1] = biological target: T1, IL-6 (Homo sapiens, UniProt P05231); test: Kinetic analysis using surface plasmon resonance (Biacore T200), immobilized IL-6; type: binding
T1 construct: purchased R&D Systems 206-IL-200/CF
Method: (§1) Kinetic constants (ka and kd) and affinities (KD) were determined for His6-tagged Y variants using a Biacore T200 instrument (GE Healthcare). Target proteins C4, IL-6 and insulin, respectively, were immobilized in separate flow cells on the carboxylated dextran layer of different CM5 chip surfaces (GE Healthcare). Immobilization was performed using amine coupling chemistry according to the manufacturer's protocol and PBS pH 7.4 supplemented with 0.1 Tween20 (PBST 0.1%) as running buffer. The ligand immobilization levels on the surfaces were 3280-8830 RU for C4, 495-1184 RU for IL-6, and 270-282 RU for insulin. One flow cell surface on each chip was activated and deactivated for use as blank during analyte injections. In the kinetic experiment, PBST 0.1% was used as running buffer at a flow rate of 30 μl/min. The analytes, i.e. Y variants, were each diluted in PBST 0.1 buffer at concentrations of 1000, 500, 100, 50 and 10 nM and injected for 5 min, followed by dissociation in running buffer for 3 min. After dissociation, the surfaces were regenerated with one injection of 30 μl 10 mM HCl. Kinetic constants were calculated from the sensorgrams using the Langmuir 1:1 model of Biacore T200 Evaluation software 2.0 (GE Healthcare).
(§2) Produced Y variants were subjected to CD and SPR analyses according to the methods described in Example 1.
(§3) Produced Y variants were subjected to CD and SPR analyses according to the methods described in Example 1. In addition, CD spectra of selected IL-6 binding variants were also recorded at 60, 70, 80 and 90° C.
(§4) The Y variants were cloned, produced and characterized according to the general methods described in Example 1. Produced Y variants with point mutations were subjected to CD and SPR analyses as described in Example 1. In addition, CD spectra of the IL-6 binding variants were also recorded at 60, 70, 80 and 90° C.

[2] = Fraction of soluble product on expression in E. coli, estimated from SDS-PAGE; type: physicochemical; conditions: MGSSHHHHHHGSS-[Y#####]-A; for Est soluble fraction: Table 9, mutation study 5; for Estimated soluble fraction: Table 7, Ylib002Naive.I selection
Method: E. coli T7E2 cells were transformed with plasmids containing the gene fragment of each respective Y variant. The resulting recombinant strains were generally cultivated in media supplemented with 50 μg/ml kanamycin at 30-37° C. in 50 ml scale using the EnPresso protocol (Enpresso GmbH). In order to induce protein expression, isopropyl-β-D-1-thiogalactopyranoside (IPTG) was added to a final concentration of 0.5 mM at an optical density at 600 nm (OD600) of approximately 10. After induction, the cultures were incubated for 16 h. The cells were harvested by centrifugation. Alternatively, the culture was performed at 37° C. in 980 ml of TSB-YE medium (tryptic soy broth 30 g/l supplemented with yeast extract 5 g/l) supplemented with 50 μg/ml kanamycin, and protein expression induced with 0.2 mM IPTG at OD600=2, followed by incubation for 5 h before harvesting of the cells by centrifugation. The total yield as well as the fraction of soluble and insoluble product of the respective Y variant was estimated based on SDS-PAGE analysis.

[3] = biological target: T2, insulin (Homo sapiens, UniProt P01308); test: Kinetic analysis using surface plasmon resonance (Biacore T200), immobilized insulin; type: binding; conditions: MGSSHHHHHHGSS-[Y#####]-A
T2 construct: purchased Roche 1376497
T2 sequence (P01308 25-54 limits assumed): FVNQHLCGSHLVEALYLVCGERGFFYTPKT
T2 sequence (P01308 90-110 limits assumed): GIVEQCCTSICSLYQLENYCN
Method: as §1, §2
(§5) The Y variants were cloned, produced and characterized according to the general methods described in Example 1. Produced Y variants with point mutations and/or N-terminal or C-terminal extensions were subjected to CD and SPR analyses as described in Example 1.
as §3, §4

[4] = Circular dichroism spectroscopy analysis (CD spectra, variable temperature measurement, refolding); type: physicochemical; conditions: for α-helical content / ability to fold into an α-helical structure: CD spectrum at 20° C.
Method: The respective Y variant was diluted to 0.5 mg/ml in PBS. A CD spectrum at 250-195 nm was obtained at 20° C. In addition, a variable temperature measurement (VTM) was performed to determine the melting temperature (Tm). In the VTM, absorbance was measured at 221 nm while the temperature was raised from 20° C. to 90° C. with a temperature gradient of 5° C./min. A new CD spectrum was obtained at 20° C. after the heating procedure, in order to study the refolding ability of the Y variants. The CD measurements were performed on a Jasco J-810 spectropolarimeter (Jasco Scandinavia AB) using a cell with an optical path length of 1 mm.
as §2, §5, §3, §4

[5] = Table 9, mutation study 5, MGSSHHHHHHGSS-[Y#####]-A
[6] = Table 7, MGSSHHHHHHGSS-[Y#####]-A
[7] = Table 2, His6-tagged Y variant, MGSSHHHHHHGSS-[Y#####]-ASGSVD
[8] = Table 2, Ylib001Naive.I selection, MGSSHHHHHHGSS-[Y#####]-ASGSVD, 0.5 mg/ml in PBS, 221 nm, 20-90° C.

T1 sequence (P05231 30-212): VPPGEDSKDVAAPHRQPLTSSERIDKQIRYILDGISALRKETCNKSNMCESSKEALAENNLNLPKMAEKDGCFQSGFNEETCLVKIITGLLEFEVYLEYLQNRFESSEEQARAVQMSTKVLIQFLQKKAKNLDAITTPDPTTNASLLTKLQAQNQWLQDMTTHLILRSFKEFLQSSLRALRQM

Substance | Kd ([3]; Table 7) | ka ([3]; Table 7) | kd ([3]; Table 7) | Kd ([3]; Table 9, mutation study 5) | ka ([3]; Table 9, mutation study 5) | kd ([3]; Table 9, mutation study 5) | Est soluble fraction [2] | Estimated soluble fraction [2] | Tm [4, 6] | Tm [4, 5] | other results
Y02703: IL-6 binding Y variant, Y02444 with K15Y Q26E, SEQ ID NO:87 (LAEAKEAAIAELDSYGVGAVEIKQIEEALLVEIVQLLKQAILAVLPA; Engineered IL-6 binding Y variant) | – | – | – | – | – | – | 100% | – | – | – | Kd [1, 5]: 120 nM; ka [1, 5]: 21000 M⁻¹ s⁻¹; kd [1, 5]: 0.0025 s⁻¹
Y02374: IL-6 binding Y variant from Ylib002Naive.I, SEQ ID NO:72 (LAEAKEAAIAELDSKGVGAAEIKRIQAAELVEIVQLLKQAILAVLPA; Engineered IL-6 binding Y variant) | – | – | – | – | – | – | – | 100% | – | – | Kd [1, 6]: 120 nM; ka [1, 6]: 14000 M⁻¹ s⁻¹; kd [1, 6]: 0.0017 s⁻¹
Y00304: insulin binding Y variant from Ylib002Naive.I, SEQ ID NO:134 (LAEAKEAAIAELDSKGVGAYQIKFIQVAHDVEEVQILKQAILADLPA; Engineered insulin binding Y variant) | 21 nM | 85000 M⁻¹ s⁻¹ | 0.0011 s⁻¹ | – | – | – | – | 33% | 41 °C | – | –
Y02715: insulin binding Y variant, Y00358 with K15Y Q26E, SEQ ID NO:155 (LAEAKEAAIAELDSYGVGAAKIKWIEDAKSVETVQFLKQAILAELPA; Engineered insulin binding Y variant) | – | – | – | 280 nM | 6700 M⁻¹ s⁻¹ | 0.0019 s⁻¹ | 100% | – | – | 61 °C | –
Y00299: insulin binding Y variant from Ylib002Naive.I, SEQ ID NO:132 (LAEAKEAAIAELDSKGVGAYQIKFIQVAKTVEQVQILKQAILADLPA; Engineered insulin binding Y variant) | 6.5 nM | 310000 M⁻¹ s⁻¹ | 0.002 s⁻¹ | – | – | – | – | 75% | 56 °C | – | –
Y00035: IL-6 binding Y variant from Ylib001Naive.I, SEQ ID NO:50 (LAEAKEAANAELDSYGVQANSIEAIEQGLFVEVVELLKELILAALP; Engineered IL-6 binding Y variant) | – | – | – | – | – | – | – | – | – | – | Kd [1, 7]: 360 nM; α-helical content / ability to fold into an α-helical structure [4]: limited ability; Tm [4, 8]: 60 °C
Y02713: insulin binding Y variant, Y00310 with K15Y, SEQ ID NO:153 (LAEAKEAAIAELDSYGVGAYQIKFIQIAHTVEEVQLMKQAILADLPA; Engineered insulin binding Y variant) | – | – | – | 190 nM | 110000 M⁻¹ s⁻¹ | 0.014 s⁻¹ | 100% | – | – | 51 °C | –
Y02709: insulin binding Y variant, Y00358 with I9L, SEQ ID NO:149 (LAEAKEAALAELDSKGVGAAKIKWIQDAKSVETVQFLKQAILAELPA; Engineered insulin binding Y variant) | – | – | – | 380 nM | 27000 M⁻¹ s⁻¹ | 0.01 s⁻¹ | 100% | – | – | 54 °C | –
Y00330: insulin binding Y variant from Ylib002Naive.I, SEQ ID NO:136 (LAEAKEAAIAELDSKGVGAKYIKMIQMAKHVETVQYMKQAILASLPA; Engineered insulin binding Y variant) | 120 nM | 30000 M⁻¹ s⁻¹ | 0.0037 s⁻¹ | – | – | – | – | 67% | 56 °C | – | –
Y00076: IL-6 binding Y variant from Ylib001Naive.I, SEQ ID NO:61 (LAEAKEAALAELDSKGIEEKSISEIEAGLWVEVVELLKESILAVLP; Engineered IL-6 binding Y variant) | – | – | – | – | – | – | – | – | – | – | Kd [1, 7]: 430 nM; α-helical content / ability to fold into an α-helical structure [4]: limited ability; Tm [4, 8]: 47 °C
Y00358: insulin binding Y variant from Ylib002Naive.I, SEQ ID NO:142 (LAEAKEAAIAELDSKGVGAAKIKWIQDAKSVETVQFLKQAILAELPA; Engineered insulin binding Y variant) | 10 nM | 220000 M⁻¹ s⁻¹ | 0.0023 s⁻¹ | – | – | – | – | 97% | 61 °C | – | –

More lines, main results first:

Kd ([3]; Table 7) | ka ([3]; Table 7) | kd ([3]; Table 7) | Kd ([3]; Table 9, mutation study 5) | ka ([3]; Table 9, mutation study 5) | kd ([3]; Table 9, mutation study 5) | Substance | Est soluble fraction [2] | Estimated soluble fraction [2] | Tm [4, 6] | Tm [4, 5] | other results
0.17 nM | 3.4e+07 M⁻¹ s⁻¹ | 0.0061 s⁻¹ | – | – | – | Y00356a: insulin binding Y variant from Ylib002Naive.I, SEQ ID NO:141 (LAEAKEAAIAELDSKGVGAKYIKMIQHAHYVEVVQWLKQAILAHLPA; Engineered insulin binding Y variant) | – | 60% | 56 °C | – | –
– | – | – | 14 nM | 190000 M⁻¹ s⁻¹ | 0.0027 s⁻¹ | Y02710: insulin binding Y variant, Y00358 with K15Y, SEQ ID NO:150 (LAEAKEAAIAELDSYGVGAAKIKWIQDAKSVETVQFLKQAILAELPA; Engineered insulin binding Y variant) | 100% | – | – | 61 °C | –
61 nM | 290000 M⁻¹ s⁻¹ | 0.017 s⁻¹ | – | – | – | Y00345: insulin binding Y variant from Ylib002Naive.I, SEQ ID NO:138 (LAEAKEAAIAELDSKGVGAYQIKFIQVAKTVEAVQAIKQAILADLPA; Engineered insulin binding Y variant) | – | 80% | 53 °C | – | –
– | – | – | 610 nM | 33000 M⁻¹ s⁻¹ | 0.02 s⁻¹ | Y02717: insulin binding Y variant, Y00310 with K15Y Q26E, SEQ ID NO:157 (LAEAKEAAIAELDSYGVGAYQIKFIEIAHTVEEVQLMKQAILADLPA; Engineered insulin binding Y variant) | 100% | – | – | 52 °C | –
– | – | – | 54 nM | 1500 M⁻¹ s⁻¹ | 0.008 s⁻¹ | Y02711: insulin binding Y variant, Y00358 with Q26E, SEQ ID NO:151 (LAEAKEAAIAELDSKGVGAAKIKWIEDAKSVETVQFLKQAILAELPA; Engineered insulin binding Y variant) | 100% | – | – | 62 °C | –
0.94 nM | 2.9e+07 M⁻¹ s⁻¹ | 0.056 s⁻¹ | – | – | – | Y00301: insulin binding Y variant from Ylib002Naive.I, SEQ ID NO:133 (LAEAKEAAIAELDSKGVGARQIKWIQQAKSVEVVQWLKQAILADLPA; Engineered insulin binding Y variant) | – | 83% | 62 °C | – | –
37 nM | 170000 M⁻¹ s⁻¹ | 0.0063 s⁻¹ | – | – | – | Y00310: insulin binding Y variant from Ylib002Naive.I, SEQ ID NO:135 (LAEAKEAAIAELDSKGVGAYQIKFIQIAHTVEEVQLMKQAILADLPA; Engineered insulin binding Y variant) | – | 86% | 54 °C | – | –

From patent US11505576B2, “Polypeptides based on a scaffold” (AFFIBODY AB, priority 2018, dated 2022)
